Substitutions are numbered along the chain they refer to.

The term Kd denotes the equilibrium constant for the complex coming apart. One may read the koff as the rate constant with which the complex falls apart. For orientation: kon means a measure of how fast the partners come together. A low value points to slower complex formation. What is called IC50 is the point on the concentration scale where inhibition reaches its midpoint. Lower therefore signals greater potency.

B1: Antibody 2F1 (antibody, V domains shown)
VH: EVKLEESGGGLVQPGGSMKLSCAASGFTFSDAWMDWVRQSPKKGLEWVAEIRSKSNNHTTYYAESVKGRFTISRDDSKSSVYLQMNSLRAEDTGIYYCTRDWLTYWGQGTLVTVSA
VL: DIVLTQSPASLAVSLGQRATISCRASKSVSTSGYSYMNWYQQKPGQPPKLLIYLASNLESGVPARFSGSGSGTDFTLNIHPVEEEDAATYYCQHSRELPLTFGAGTKLELK
notes: Mouse hybridoma mAb purified from ascites
B2: Antibody 14C11 (antibody, V domains shown)
VH: EVQLQQSGPDLVKPGASVKISCKASGYIFTDFNMHWVKQSHGKSLEWIGYIYPFNGGTGYNQKFENKATLTVDNSSSTAYMEVRSLTSEDSAVYYCARRGGRGHFDYWGQGTTLTVSS
VL: DIQMTQSPASLSASVGETVTVTCRASGNIHNYLAWYQQKQGKSPQLLVYNAKTLADGVPSRFSGSGSGTQFSLKINSLQPEDFGSYYCQHFWNTPFTFGSGTKLEIK
notes: as for B1
B3: Antibody 7G4 (antibody, V domains shown)
VH: QVQLKQSGPGLVQPSQSLSITCTVSGFSLATYGVHWVRQSPGKGLEWLGVMWRDGSTDYNAVFMSRLSITKDDSKSQVFFKMNSLQADDTAIYYCAKNPYLYGSSHYYAMDYWGQGTSVTVSS
VL: DIVMTQSPSSLSVSAGEKVTMSCKSSQSLLNSENQKNYLAWYQQKPGQPPKLLIYGASTRESGVPDRFTGSGSGTDFTLTISSVQAEDLAVYYCQNDHIYPFTFGSGTKLEIK
notes: as for B1
B4: Antibody 12D8 (antibody, V domains shown)
VH: QVQLRQSGPGLVQPSQSLSITCTVSGFSLTSYGVHWVRQSPGKGLEWLGVIWSGGITDYNAAFISRLSISKDNSKSQVFFRMNSLQTNDTAIYYCAREIYGNPDYWGQGTTLTVSS
VL: DIVMTQSHKFMSTSVGDRVSITCKASQDVSIAVAWFQQKPGQSPKLLIYSASYRYTGVPDRFSGSGSGTDFTFTISSVQAEDLAVYYCQQHYSTPRTFGGGTKLEIK
notes: as for B1
B5: chimeric 11B12 (antibody, V domains shown)
VH: DVQLQESGPGLVKPSQSLSLTCSVTGYSITSGYYWNWIRQFPGNKLEWMGYISYDGNNNYNPSLKNRISITRDTSKNQFFLKLNSVTTEDTATYYCAREESTMITTAWFAYWGQGTLVTVSA
VL: DIQMTQSPASLSVSVGETVTITCRASENIYSNLAWYQQKQGKSPQLLVYGATNLADGVPSRFSGSGSGTQYSLKINSLQSEDFGSYFCQHFWDTPYTFGGGTKLEIK
B6: Antibody h#2D4 (antibody, V domains shown)
VH: EVQLVESGGGLVQPGGSLRLSCAVSGYSITSGYYWNWVRQAPGKGLEWVAYISYDGNNNYNPSLKNRFTISRDTSKNTFYLQMNSLRAEDTAVYYCVREESTMITTAWFAYWGQGTLVTVSS
VL: DIQMTQSPSSLSASVGDRVTITCRASENIYSNLAWYQQKPGKAPKLLIYGATNLASGVPSRFSGSGSGTDYTLTISSLQPEDFATYYCQHFWDTPYTFGQGTKVEIK
notes: Humanized variant of 11B12
B7: Antibody h#2G6 (antibody, V domains shown)
VH: B6 VH with T74A, V97A
VL: B6 VL
notes: Humanized variant of 11B12
B8: Antibody h#2D1 (antibody, V domains shown)
VH: B6 VH with F79V
VL: B6 VL
notes: Humanized variant of 11B12
B9: Antibody h#2C1 (antibody, V domains shown)
VH: B6 VH with V97A
VL: B6 VL
notes: Humanized variant of 11B12
B10: Antibody 10B11 (antibody, V domains shown)
VH: EIQLQQSGPELVKPGASVKVSCKASGNSFTDNNIYWVKQSHGESLEWIGYIDPFNGRTTYNQKFKGKATLTVDKSSSTAFMHLNSLTSGDSAVYYCARGDYFNYWGQGTTLTVSS
VL: EIQMTQTTSSLSASLGDRVTISCSASQGINNYLNWFQQKSDGTVKLLIYYTSSLHSGVPSRFSGSGSGTDYSLTISNLEPEDIAIYYCQQYSNLPFTFGGGTELEIK
notes: as for B1
B11: Antibody 11D9 (antibody, V domains shown)
VH: EIQLQQSGPELVKPGASVKLSCKASGYAFTTYNMYWVKQSPGKSLEWIGYIDPYNGGATYNLKFKGKATLTVDKSSSAAYMHLNGLTSEDSAVYYCAGGDYFNYWGQGTILTVSS
VL: B10 VL with E1D, S24R, G28V, S40P, S53T, I83F, I85T, N93T, F96Y, E103K
notes: as for B1
B12: Antibody 4A9 (antibody, V domains shown)
VH: EIQLQQSGPELVKPGASVKVSCKASGSSFTDYNMYWVKQIHGKSLDWIGYIDPYNGRTTYNQKFKGKATLTVDKSSSTAFMHLNSLTSEDSAVYYCAGGDYFDYWGHGTSLTVSS
VL: B10 VL with N30S, S40P, S53T, Y71F, E79D, I83F, I85T, F96Y, E103K
notes: as for B1
B13: h#2G3 (antibody, V domains shown)
VH: B6 VH with V38I, F79V, V97A
VL: B6 VL with M4L
notes: also called Antibody h#2G3

T2 sequence (Q8NHL6 24-650): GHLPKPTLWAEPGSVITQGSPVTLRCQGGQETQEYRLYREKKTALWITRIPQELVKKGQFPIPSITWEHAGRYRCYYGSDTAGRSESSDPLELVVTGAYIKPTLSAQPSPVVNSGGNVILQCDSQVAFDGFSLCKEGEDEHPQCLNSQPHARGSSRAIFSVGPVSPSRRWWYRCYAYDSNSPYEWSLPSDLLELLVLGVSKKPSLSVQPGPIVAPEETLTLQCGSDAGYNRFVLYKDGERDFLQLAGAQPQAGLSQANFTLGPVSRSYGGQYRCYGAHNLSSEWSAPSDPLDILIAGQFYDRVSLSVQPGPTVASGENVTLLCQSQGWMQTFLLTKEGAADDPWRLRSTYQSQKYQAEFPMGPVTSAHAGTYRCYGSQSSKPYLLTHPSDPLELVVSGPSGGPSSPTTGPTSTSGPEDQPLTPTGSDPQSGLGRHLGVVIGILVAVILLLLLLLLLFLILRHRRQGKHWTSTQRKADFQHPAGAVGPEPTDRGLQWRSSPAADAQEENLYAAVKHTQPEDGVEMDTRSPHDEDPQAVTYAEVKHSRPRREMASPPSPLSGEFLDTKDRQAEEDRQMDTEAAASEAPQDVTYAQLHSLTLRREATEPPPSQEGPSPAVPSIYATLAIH
T5 sequence (chain, as listed by the source limits assumed): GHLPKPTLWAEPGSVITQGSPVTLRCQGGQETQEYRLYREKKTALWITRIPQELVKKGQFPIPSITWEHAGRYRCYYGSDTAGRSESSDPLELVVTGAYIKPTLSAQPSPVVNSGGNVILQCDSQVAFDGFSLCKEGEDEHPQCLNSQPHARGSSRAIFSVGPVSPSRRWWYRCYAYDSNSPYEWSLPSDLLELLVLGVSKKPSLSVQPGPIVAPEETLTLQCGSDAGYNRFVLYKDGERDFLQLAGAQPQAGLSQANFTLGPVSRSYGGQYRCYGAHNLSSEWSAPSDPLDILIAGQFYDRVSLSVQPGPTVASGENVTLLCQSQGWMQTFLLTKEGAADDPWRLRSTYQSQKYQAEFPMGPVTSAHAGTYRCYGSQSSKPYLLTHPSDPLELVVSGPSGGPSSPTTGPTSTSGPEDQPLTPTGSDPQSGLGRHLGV

For one assay, the target named is T1, human LILRB3 expressed on 293T cells (human, UniProt O75022 24-631).
T1 construct: whole, on cells
Nature of the assay: flow cytometry on 293T transfectants, MFI. As to the method:
(§1) The cells were then immobilized with glutaraldehyde in the presence of 5% defatted milk at room temperature for 2 hours. An anti-LILRB2 antibody (5 μg/ml) was added to each well and incubated at room temperature for 1 hours. An Alex Flour®-labelled goat anti-mouse secondary antibody (1:2,000 dilution) was then added into each well and incubated at room temperature for 30′. The cells were washed twice with PBS after the staining. Fluorescence intensities (MFI) were measured.
On the technique in general: Flow cytometry measures light scatter and fluorescence of single cells or particles in a stream.
In the case of B1, the binding result is “no binding (tested: 5 µg/ml)”.

For the molecule B2, the binding result is recorded as “no binding (tested: 5 µg/ml)”.

B3: the binding result is on record as “no binding (tested: 5 µg/ml)”.

In the case of B4, the binding result is reported as “no binding (tested: 5 µg/ml)”.

A further assay concerns the target T2, human LILRB1 expressed on 293T cells (human, UniProt Q8NHL6 24-650).
T2 construct: whole, on cells
Kind of assay: flow cytometry on 293T transfectants, MFI. As to the method:
as §1
On to B1, for which the binding result is given as “no binding (tested: 5 µg/ml)”.

B2: the binding result is listed as “no binding (tested: 5 µg/ml)”.

Consider B3, for which the binding result is recorded as “no binding (tested: 5 µg/ml)”.

Consider B4, for which the binding result is given as “no binding (tested: 5 µg/ml)”.

In another assay the target is T3, human LILRB2 expressed on cells (293T-LILRB2, CHO-K1-LILRB2) (human, UniProt Q8N423 22-597).
T3 construct: whole, on cells; the cell line is named under assay; also called HEK293T-LILRB2
T3 sequence (Q8N423 22-597): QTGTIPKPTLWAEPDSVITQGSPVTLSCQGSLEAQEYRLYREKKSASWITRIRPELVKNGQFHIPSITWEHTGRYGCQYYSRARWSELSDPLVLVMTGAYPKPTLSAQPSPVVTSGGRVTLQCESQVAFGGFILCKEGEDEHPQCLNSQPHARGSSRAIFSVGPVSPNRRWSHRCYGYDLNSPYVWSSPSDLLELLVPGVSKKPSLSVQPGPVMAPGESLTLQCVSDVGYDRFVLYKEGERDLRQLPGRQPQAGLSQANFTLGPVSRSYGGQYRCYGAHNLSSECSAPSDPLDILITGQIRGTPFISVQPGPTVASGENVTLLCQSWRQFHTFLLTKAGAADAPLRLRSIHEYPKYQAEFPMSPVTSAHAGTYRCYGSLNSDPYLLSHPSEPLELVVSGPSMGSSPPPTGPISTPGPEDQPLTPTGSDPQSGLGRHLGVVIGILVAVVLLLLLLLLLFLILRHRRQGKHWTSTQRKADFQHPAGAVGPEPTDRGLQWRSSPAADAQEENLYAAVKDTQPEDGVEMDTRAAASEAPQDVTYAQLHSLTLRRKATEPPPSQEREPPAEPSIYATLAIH
Nature of the assay: flow cytometry on 293T-LILRB2 cells, serial dilution, APC anti-human IgG; fit table under the graph. An excerpt: (§2) The cells were washed and then subject to flow cytometry to measure levels of fluorescent signals.
Molecule B5 returned a Bmax of 582000 RFU and a Kd of 0.171 nM.

The next assay concerns the target T3, human LILRB2 expressed on cells …. The description is as above. The source holds these as a separate data set.
Text: as §2
As for B6, the Bmax was 563000 RFU and binding was characterised by a dissociation constant (Kd) of 0.386 nM.

B7: the Bmax was determined as 582000 RFU and binding was characterised by a dissociation constant (Kd) of 0.292 nM.

As to B8, the Bmax was found to be 565000 RFU and binding was characterised by a dissociation constant (Kd) of 0.412 nM.

In another assay the target is T4, His-tagged human LILRB2 polypeptide (human, UniProt Q8N423 22-460).
T4 construct: SPR analyte; also called His-tagged human LILBR2 polypeptide; not shown: His tag
T4 sequence (Q8N423 22-460 limits assumed): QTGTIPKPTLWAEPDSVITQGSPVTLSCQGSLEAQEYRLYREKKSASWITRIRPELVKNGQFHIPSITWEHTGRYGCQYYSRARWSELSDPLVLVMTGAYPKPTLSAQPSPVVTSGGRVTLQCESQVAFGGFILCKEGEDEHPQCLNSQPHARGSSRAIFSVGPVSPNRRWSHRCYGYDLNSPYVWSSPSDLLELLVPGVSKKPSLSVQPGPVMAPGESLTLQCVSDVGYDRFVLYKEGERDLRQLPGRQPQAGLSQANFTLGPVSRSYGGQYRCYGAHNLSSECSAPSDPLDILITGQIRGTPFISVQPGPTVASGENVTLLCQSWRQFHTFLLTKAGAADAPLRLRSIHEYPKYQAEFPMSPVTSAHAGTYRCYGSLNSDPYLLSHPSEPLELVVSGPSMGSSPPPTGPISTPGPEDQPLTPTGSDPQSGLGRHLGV
Kind of assay: SPR, antibody on CM5 chip, His-LILRB2 analyte, 1:1 model. As to the method: Surface plasmon resonance (SPR) was used to examine binding activities of exemplary anti-LILBR2 antibodies disclosed herein. Briefly, the anti-LILBR2 antibody was diluted in a coating buffer to a concentration of 30 μg/ml, loaded onto CM5 chips at 10 μl/min to allow coating of the antibody on the surface of the CM5 chip. […] Binding affinity was measured based on the 1:1 binding model.
(In SPR one partner is held on a chip, and binding of the other changes the refractive index at the surface.)
B2: binding was put at a Kd of 0.962 nM, the koff came to 0.00025 s⁻¹ and the kon is 260000 M⁻¹ s⁻¹.

Take B3: binding was put at a Kd of 1.57 nM, the koff was found to be 0.000677 s⁻¹ and the kon was 432000 M⁻¹ s⁻¹.

B4 displayed a Kd of 0.227 nM, a koff of 0.00014 s⁻¹ and a kon of 618000 M⁻¹ s⁻¹.

A further assay deals with T3, human LILRB2 expressed on cells …. Nature of the assay: flow cytometry, blockade of His-tagged HLA-G tetramer binding to 293T-LILRB2 cells; fit table under the graph. As to the method:
Serial diluted humanized LILRB2 antibodies were then added to the mixture and incubated at room temperature for another 45 minutes. The binding of HLA-G/LILRB2 was detected afterwards using a secondary PE-labeled anti-His tag antibody via flow cytometry.
As for B9, the half-maximal inhibitory concentration (IC50) was determined as 0.56 nM and the Span was 6960 RFU.

B6 registered an IC50 of 0.429 nM and a Span of 7190 RFU.

As for B7, the IC50 is 0.391 nM and the Span was 7660 RFU.

As to B8, the IC50 came to 0.613 nM and the Span was 6830 RFU.

Another assay deals with T1, human LILRB3 expressed on 293T cells. Nature of the assay: cell ELISA on fixed 293T transfectants, OD490. As to the method:
The cells were then immobilized with glutaraldehyde in the presence of 5% defatted milk at room temperature for 2 hours. An anti-LILRB2 antibody (2 μg/ml) was added to each well and incubated at room temperature for 2 hours. An HRP-labelled goat anti-mouse secondary antibody was then added into each well and incubated at room temperature for one hour. An HRP substrate, o-phenylenediamine dihydrochloride (OPD) was then added to each well. The plate was incubated at room temperature for 15 min to allow color development and OD₄₉₀ values were determined.
For orientation: ELISA stands for enzyme-linked immunosorbent assay.
For B10, the binding result is recorded as “no binding (tested: 2 µg/ml)”.

B11: the binding result was “no binding (tested: 2 µg/ml)”.

Turning to B12, the binding result is “no binding (tested: 2 µg/ml)”.

In the next assay the target is LILRB2 antigen of the ELISA of Table 5 (format not specified) (UniProt Q8N423 22-460, limits assumed). Nature of the assay: ELISA, antibody titration.
Chain of LILRB2 antigen of the ELISA of Table 5 (format not specified) (Q8N423 22-460 limits assumed): as above
B1 came in with a Kd of 2.18 nM.

B2 returned a Kd of 0.804 nM.

Consider B3, for which the Kd was 1.53 nM.

B10 gave a Kd of 0.195 nM.

As for B11, the affinity, expressed as Kd, was 1.43 nM.

Molecule B12 gave a Kd of 0.216 nM.

The molecule B4 returned a Kd of 4.37 nM.

Another assay concerns the target T3, human LILRB2 expressed on cells …. Nature of the assay: flow cytometry on 293T-LILRB2 cells, serial dilution, APC anti-human IgG; fit table under the graph. The source holds these as a separate data set.
Text: as §2
Molecule B9 returned a Bmax of 684000 RFU and a Kd of 0.394 nM.

Molecule B13 yielded a Bmax of 683000 RFU and a Kd of 0.536 nM.

A further assay addresses T5, LILRB1-His.
T5 construct: also called His-tagged LILRB1; recombinant LILRB1 protein
Kind of assay: ELISA on recombinant His-tagged protein, OD450.
For the molecule B4, the binding result is on record as “no binding”.

A further assay addresses T6, LILRB3-His.
T6 construct: also called His-tagged LILRB3; recombinant LILRB3 protein
Kind of assay: ELISA on recombinant His-tagged protein, OD450.
Take B2: the binding result was “no binding”.

Take B10: the binding result is recorded as “no binding”.

B11: the binding result is recorded as “no binding”.

Consider B12, for which the binding result is reported as “no binding”.
